Paper PMC6819661
pKd: −log10 of the molar value.

Assays:
GST-NS2A (Zika virus) = experiment: EMSA; settings: EMSA: 50 mM Tris-HCl pH 7.5, 10 mM 2-mercaptoethanol, 2 mM MgCl2, 50 mM KCl, 15 min at 24 C, 100 pM biotinylated RNA, 0.4% agarose; pull-down: Pierce magnetic …
[1] = system: GST-NS2A(58-133) (Zika virus); experiment: pull-down; settings: EMSA: 50 mM Tris-HCl pH 7.5, 10 mM 2-mercaptoethanol, 2 mM MgCl2, 50 mM KCl, 15 min at 24 C, 100 pM biotinylated RNA, 0.4% agarose; pull-down: Pierce magnetic …

5' UTR-C66-3' UTR-biotin RNA
pKd (GST-NS2A (Zika virus)): 7.99 | binding signal (% (reference)) [1]: 100
